± gives the standard error. Variants at the floor of the assay were thinned out.
B1: glmS ribozyme (parent)
chain: AUAAAAGCGCCAGAACUACAGAAAUGUAGUUGACGAGGAGGAGGUUUAUCGAAUUUUCGGCGGAUGCCUCCAAA

Assays:
Settings in all cases: with glucosamine-6-phosphate
glucosamine-6-phosphate [1] = variants of: B1; assay: self-cleavage kobs at 40 uM GlcN6P; higher = faster cleavage; RNA array
How it was run: (§1)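 Barcoded ribozyme variants, transcribed in situ by E. coli RNA polymerase on sequenced MiSeq chips, were followed via a hybridised Cy3 probe at 37 °C. Glucosamine-6-phosphate ranged from 40 μM to 10 mM in HEPES/KCl/Mg(OAc)2 buffer. kobs came from decay fits to per-tile medians, and kcat and KM from weighted Michaelis–Menten fits.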

glucosamine-6-phosphate [2] = variants of: B1; assay: self-cleavage kobs at 160 uM GlcN6P; higher = faster cleavage; RNA array
How it was run: as §1

glucosamine-6-phosphate [3] = variants of: B1; assay: self-cleavage kobs at 640 uM GlcN6P; higher = faster cleavage; RNA array
How it was run: as §1

glucosamine-6-phosphate [4] = variants of: B1; assay: self-cleavage kobs at 2500 uM GlcN6P; higher = faster cleavage; RNA array
How it was run: as §1

glucosamine-6-phosphate [5] = variants of: B1; assay: self-cleavage kobs at 10000 uM GlcN6P; higher = faster cleavage; RNA array
How it was run: as §1

Variant	self-cleavage kobs at 40 uM GlcN6P (glucosamine-6-phosphate [1])	self-cleavage kobs at 160 uM GlcN6P (glucosamine-6-phosphate [2])	self-cleavage kobs at 640 uM GlcN6P (glucosamine-6-phosphate [3])	self-cleavage kobs at 2500 uM GlcN6P (glucosamine-6-phosphate [4])	self-cleavage kobs at 10000 uM GlcN6P (glucosamine-6-phosphate [5])
G32U G35U	< 1e-05 s⁻¹	< 1e-05 s⁻¹	< 1e-05 s⁻¹	< 1e-05 s⁻¹	< 1e-05 s⁻¹
G38C A39U G60U	< 1e-05 s⁻¹	–	–	< 1e-05 s⁻¹	< 1e-05 s⁻¹
G9A G35A	< 1e-05 s⁻¹	< 1e-05 s⁻¹	< 1e-05 s⁻¹	–	–
G41U G62U	< 1e-05 s⁻¹	< 1e-05 s⁻¹	< 1e-05 s⁻¹	< 1e-05 s⁻¹	< 1e-05 s⁻¹
G13A U46C G59A	< 1e-05 s⁻¹	–	–	–	–
C16A A52C	< 1e-05 s⁻¹	< 1e-05 s⁻¹	< 1e-05 s⁻¹	–	< 1e-05 s⁻¹
G32C G43U U47C	< 1e-05 s⁻¹	–	–	–	–
G29C U65G C67U	< 1e-05 s⁻¹	–	–	–	0.000105 ± 3e-05 s⁻¹
G7C G38U C70G	< 1e-05 s⁻¹	–	–	–	–
A33C G43A G44A	< 1e-05 s⁻¹	–	–	–	< 1e-05 s⁻¹
C11U G29A G32U C50G	7.73e-05 ± 3.1e-05 s⁻¹	–	–	–	7.84e-05 ± 2.3e-05 s⁻¹
G9A A14U A39G	< 1e-05 s⁻¹	–	–	< 1e-05 s⁻¹	–
U46C C61G	< 1e-05 s⁻¹	< 1e-05 s⁻¹	< 1e-05 s⁻¹	< 1e-05 s⁻¹	–
C10G U47A	< 1e-05 s⁻¹	< 1e-05 s⁻¹	< 1e-05 s⁻¹	–	–
G37U U69A	< 1e-05 s⁻¹	–	–	–	< 1e-05 s⁻¹
G43A C70G	< 1e-05 s⁻¹	< 1e-05 s⁻¹	< 1e-05 s⁻¹	< 1e-05 s⁻¹	< 1e-05 s⁻¹
C11G U30C	< 1e-05 s⁻¹	–	< 1e-05 s⁻¹	–	–
G9C G13C G35C	< 1e-05 s⁻¹	–	< 1e-05 s⁻¹	–	–
C11G G38U	< 1e-05 s⁻¹	< 1e-05 s⁻¹	< 1e-05 s⁻¹	–	< 1e-05 s⁻¹
G29C C70U	8.66e-05 ± 9.8e-06 s⁻¹	0.000143 ± 1.8e-05 s⁻¹	0.000243 ± 2.2e-05 s⁻¹	0.00103 ± 0.00018 s⁻¹	0.000815 ± 0.00013 s⁻¹
G13A C58U C67G	< 1e-05 s⁻¹	–	–	–	–
G41A A48U C68A	< 1e-05 s⁻¹	–	< 1e-05 s⁻¹	< 1e-05 s⁻¹	< 1e-05 s⁻¹
C11G G13U	< 1e-05 s⁻¹	< 1e-05 s⁻¹	< 1e-05 s⁻¹	< 1e-05 s⁻¹	< 1e-05 s⁻¹
G7A A52U A64G C71A	< 1e-05 s⁻¹	< 1e-05 s⁻¹	< 1e-05 s⁻¹	< 1e-05 s⁻¹	–

Variant	self-cleavage kobs at 40 uM GlcN6P (glucosamine-6-phosphate [1])	self-cleavage kobs at 160 uM GlcN6P (glucosamine-6-phosphate [2])	self-cleavage kobs at 640 uM GlcN6P (glucosamine-6-phosphate [3])	self-cleavage kobs at 2500 uM GlcN6P (glucosamine-6-phosphate [4])	self-cleavage kobs at 10000 uM GlcN6P (glucosamine-6-phosphate [5])
G7U C10A G60U	< 1e-05 s⁻¹	< 1e-05 s⁻¹	–	< 1e-05 s⁻¹	–
C34G G40C	< 1e-05 s⁻¹	–	< 1e-05 s⁻¹	–	< 1e-05 s⁻¹
G29A A48U U54A	< 1e-05 s⁻¹	–	–	–	3.57e-05 ± 1.5e-05 s⁻¹
G38U G44U U49C	< 1e-05 s⁻¹	–	–	–	< 1e-05 s⁻¹
U47G A52G U69C	6.7e-05 ± 2.4e-05 s⁻¹	–	–	–	9.36e-05 ± 1.5e-05 s⁻¹
C16U C50U	< 1e-05 s⁻¹	–	–	5.3e-05 ± 1.3e-05 s⁻¹	0.000106 ± 2e-05 s⁻¹
A12G G37C	< 1e-05 s⁻¹	–	< 1e-05 s⁻¹	–	< 1e-05 s⁻¹
G7U C19A A36G A39C	< 1e-05 s⁻¹	–	–	–	< 1e-05 s⁻¹
G7U U55G	< 1e-05 s⁻¹	< 1e-05 s⁻¹	–	–	< 1e-05 s⁻¹
C11A G40U G41U G60C U65C	< 1e-05 s⁻¹	–	–	–	< 1e-05 s⁻¹
G35U G66C C67U	< 1e-05 s⁻¹	–	–	–	–
C8U G38C G43A G44C G63U	< 1e-05 s⁻¹	–	–	–	< 1e-05 s⁻¹
A53G G60C	< 1e-05 s⁻¹	–	–	–	< 1e-05 s⁻¹
C11A G32C	< 1e-05 s⁻¹	–	–	–	–
G9A G41U	< 1e-05 s⁻¹	< 1e-05 s⁻¹	< 1e-05 s⁻¹	< 1e-05 s⁻¹	–
G7A C58A C67G	5.23e-05 ± 2.2e-05 s⁻¹	–	–	–	–
A33C U55C U57C	< 1e-05 s⁻¹	–	–	–	< 1e-05 s⁻¹
A6G G60A	< 1e-05 s⁻¹	< 1e-05 s⁻¹	< 1e-05 s⁻¹	< 1e-05 s⁻¹	< 1e-05 s⁻¹
A15C C50G G62U	4.56e-05 ± 2.2e-05 s⁻¹	–	6.39e-05 ± 2.8e-05 s⁻¹	0.000111 ± 3.3e-05 s⁻¹	–
C10G C50G	5.37e-05 ± 1.8e-05 s⁻¹	0.000187 ± 3.5e-05 s⁻¹	0.00026 ± 4.4e-05 s⁻¹	9.17e-05 ± 2.1e-05 s⁻¹	4.6e-05 ± 1.1e-05 s⁻¹
A12U G32C C67U	< 1e-05 s⁻¹	–	–	–	–
A6U G43A	< 1e-05 s⁻¹	< 1e-05 s⁻¹	–	–	< 1e-05 s⁻¹
G37U G40A	< 1e-05 s⁻¹	< 1e-05 s⁻¹	< 1e-05 s⁻¹	< 1e-05 s⁻¹	< 1e-05 s⁻¹
G7U G32A G43A	< 1e-05 s⁻¹	< 1e-05 s⁻¹	< 1e-05 s⁻¹	–	< 1e-05 s⁻¹

Variant	self-cleavage kobs at 40 uM GlcN6P (glucosamine-6-phosphate [1])	self-cleavage kobs at 160 uM GlcN6P (glucosamine-6-phosphate [2])	self-cleavage kobs at 640 uM GlcN6P (glucosamine-6-phosphate [3])	self-cleavage kobs at 2500 uM GlcN6P (glucosamine-6-phosphate [4])	self-cleavage kobs at 10000 uM GlcN6P (glucosamine-6-phosphate [5])
U30A U54G	0.000119 ± 2.1e-05 s⁻¹	–	–	–	0.00479 ± 0.00078 s⁻¹
A14G U55C A64C	< 1e-05 s⁻¹	–	–	–	–
A6C G13U C58A A64C	< 1e-05 s⁻¹	< 1e-05 s⁻¹	< 1e-05 s⁻¹	< 1e-05 s⁻¹	–
C11A G35A U55A G60U U65A C68G	0.00461 ± 0.0018 s⁻¹	–	–	–	5.33e-05 ± 1.7e-05 s⁻¹
A15C G37A G41C U69G	< 1e-05 s⁻¹	–	–	–	< 1e-05 s⁻¹
A14U U30G C34U G40A A52G C68G	< 1e-05 s⁻¹	–	–	–	< 1e-05 s⁻¹
A42C G59C	< 1e-05 s⁻¹	< 1e-05 s⁻¹	< 1e-05 s⁻¹	< 1e-05 s⁻¹	< 1e-05 s⁻¹
U57G G60C	< 1e-05 s⁻¹	< 1e-05 s⁻¹	< 1e-05 s⁻¹	< 1e-05 s⁻¹	–
A39G U45C U57C C70U C71U	< 1e-05 s⁻¹	–	–	–	–
A39U G66A	0.000403 ± 0.00015 s⁻¹	0.000797 ± 0.00024 s⁻¹	0.00167 ± 0.00076 s⁻¹	0.00655 ± 0.0022 s⁻¹	0.0134 ± 0.0056 s⁻¹
G7A G29C U57G C70G	0.000158 ± 7.6e-05 s⁻¹	–	–	–	0.000678 ± 0.00017 s⁻¹
G9C G43A G44U C70G	< 1e-05 s⁻¹	–	–	–	< 1e-05 s⁻¹
A33U A42C U47G U54A	< 1e-05 s⁻¹	–	< 1e-05 s⁻¹	< 1e-05 s⁻¹	< 1e-05 s⁻¹
U56A G62U	< 1e-05 s⁻¹	–	< 1e-05 s⁻¹	–	–
G7A U30A U45C	< 1e-05 s⁻¹	–	–	< 1e-05 s⁻¹	< 1e-05 s⁻¹
A12C G38C G44A A64G	< 1e-05 s⁻¹	–	–	< 1e-05 s⁻¹	–
C11G C16A A33U C58G	< 1e-05 s⁻¹	–	–	–	–
U47G A64C	< 1e-05 s⁻¹	–	–	–	–
C58G G60C	< 1e-05 s⁻¹	< 1e-05 s⁻¹	< 1e-05 s⁻¹	< 1e-05 s⁻¹	< 1e-05 s⁻¹
G7A C58U C68G	0.000285 ± 7.7e-05 s⁻¹	–	–	–	–
A6C G7C	< 1e-05 s⁻¹	< 1e-05 s⁻¹	< 1e-05 s⁻¹	< 1e-05 s⁻¹	< 1e-05 s⁻¹
C8U G44C A53U G63U C68G	< 1e-05 s⁻¹	–	–	–	< 1e-05 s⁻¹
C16G U30G C61G	< 1e-05 s⁻¹	–	–	–	< 1e-05 s⁻¹
A39U C61A U65C	< 1e-05 s⁻¹	–	–	–	–

Variant	self-cleavage kobs at 40 uM GlcN6P (glucosamine-6-phosphate [1])	self-cleavage kobs at 160 uM GlcN6P (glucosamine-6-phosphate [2])	self-cleavage kobs at 640 uM GlcN6P (glucosamine-6-phosphate [3])	self-cleavage kobs at 2500 uM GlcN6P (glucosamine-6-phosphate [4])	self-cleavage kobs at 10000 uM GlcN6P (glucosamine-6-phosphate [5])
G13C U31G A48U	< 1e-05 s⁻¹	–	–	–	–
A14U A53G	0.000202 ± 2.5e-05 s⁻¹	0.000311 ± 5.2e-05 s⁻¹	0.00204 ± 0.00026 s⁻¹	0.00365 ± 0.00059 s⁻¹	0.00969 ± 0.0011 s⁻¹
G7U G37A C58U U69G	7.21e-05 ± 2.9e-05 s⁻¹	–	–	–	–
G9A A52U	< 1e-05 s⁻¹	< 1e-05 s⁻¹	< 1e-05 s⁻¹	< 1e-05 s⁻¹	< 1e-05 s⁻¹
A36C G62A	< 1e-05 s⁻¹	< 1e-05 s⁻¹	–	< 1e-05 s⁻¹	–
C8U G29C	< 1e-05 s⁻¹	< 1e-05 s⁻¹	< 1e-05 s⁻¹	< 1e-05 s⁻¹	< 1e-05 s⁻¹
G13U G51U	< 1e-05 s⁻¹	< 1e-05 s⁻¹	–	< 1e-05 s⁻¹	< 1e-05 s⁻¹
A12U G29C	0.00079 ± 0.00011 s⁻¹	0.000653 ± 0.00013 s⁻¹	0.00446 ± 0.00073 s⁻¹	0.00717 ± 0.0026 s⁻¹	0.0212 ± 0.0041 s⁻¹
G60C C61A	< 1e-05 s⁻¹	< 1e-05 s⁻¹	< 1e-05 s⁻¹	–	< 1e-05 s⁻¹
G9A G63A	< 1e-05 s⁻¹	–	< 1e-05 s⁻¹	< 1e-05 s⁻¹	< 1e-05 s⁻¹
A33U A42U C61U	< 1e-05 s⁻¹	–	–	–	–
C8A A53C G59A C68A	< 1e-05 s⁻¹	–	–	–	< 1e-05 s⁻¹
A36U G43U C50U	< 1e-05 s⁻¹	–	–	–	–
A14U U30C C61U C68A	< 1e-05 s⁻¹	–	–	–	–
G63U G66C	< 1e-05 s⁻¹	< 1e-05 s⁻¹	–	< 1e-05 s⁻¹	< 1e-05 s⁻¹
C8G U57G C70G	0.0017 ± 0.00055 s⁻¹	–	–	–	–
U55C C61U C68U	< 1e-05 s⁻¹	–	–	–	< 1e-05 s⁻¹
C34A A53C	< 1e-05 s⁻¹	–	< 1e-05 s⁻¹	< 1e-05 s⁻¹	< 1e-05 s⁻¹
C8G C50G A53G A64G	0.000149 ± 6.6e-05 s⁻¹	–	–	–	–
C50G G59A	4.42e-05 ± 2.2e-05 s⁻¹	8.57e-05 ± 2.1e-05 s⁻¹	–	–	–
G40U U54G	0.000133 ± 1.9e-05 s⁻¹	–	0.00124 ± 0.00029 s⁻¹	0.00192 ± 0.00049 s⁻¹	0.00364 ± 0.00066 s⁻¹

Reference: the supplement of paper PMC7125110
